Laboratory results taken from PMC10216065.

Target: T1, E. coli SufE (E. coli), P76194
T1 chain: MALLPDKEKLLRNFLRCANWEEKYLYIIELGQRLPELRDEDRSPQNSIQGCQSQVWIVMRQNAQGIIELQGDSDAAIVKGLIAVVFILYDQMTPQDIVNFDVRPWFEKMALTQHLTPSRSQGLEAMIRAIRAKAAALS
Assay: cross-linking; disulfide-linked species after treatment with 1 mM H2O2; SDS-PAGE under reducing (+DTT) and non-reducing (-DTT) conditions
Conditions: remark: other sources report otherwise

B1: E. coli SufE, P76194 1-138 (natural protein)
chain: T1 chain
percent of total SufE as disulfide-bonded homodimer: 34%
